Measurements from patent US7521047 (GPC BIOTECH, dated 2009).

Key:
[1] = biological target: T1, human MHC class II DR protein (DRA*0101/DRB1*0401), purified from PRIESS cells (human, UniProt P01903 26-254; P01911 30-266, limits assumed); experiment: BiaCore, Fab
T1 construct: mature; also called HLA-DR protein; MHCII
T1 MHC II alpha: not shown
T1 MHC II beta: not shown

[2] = biological target: T1, human MHC class II DR protein …; experiment: BiaCore, Fab
[3] = biological target: HLA-DR on MHH-CALL-4 cells (human); experiment: cell-based or functional assay
[4] = biological target: T2, HLA-DR (DRA*0101/DRB1*0401) on PRIESS cells (human, UniProt P01903 26-254; P01911 30-266); experiment: cell-based or functional assay
T2 MHC II alpha: not shown
T2 MHC II beta: not shown

[5] = biological target: T1, human MHC class II DR protein …; experiment: SPR (BIAcore), MHCII on CM5 chip
[6] = biological target: T1, human MHC class II DR protein …; experiment: SPR (BIAcore), chip density 4000 RU MHCII

fold affinity improvement compared to MS-GPC-8/B8 [1]: 5 fold | Kd [2]: 58.6 nM | koff [2]: 0.00548 s⁻¹ | kon [2]: 96000 M⁻¹ s⁻¹ | Kd [5]: 54.7 nM | koff [5]: 0.00548 s⁻¹ | kon [5]: 100000 M⁻¹ s⁻¹ | Kd [6]: 54.7 nM | koff [6]: 0.00548 s⁻¹ | kon [6]: 100000 M⁻¹ s⁻¹
B1: MS-GPC-8-17 Fab (Fab, V domains shown)
VH: QVQLKESGPALVKPTQTLTLTCTFSGFSLSTSGVGVGWIRQPPGKALEWLALIDWDDDKYYSTSLKTRLTISKDTSKNQVVLTMTNMDPVDTATYYCARSPRYRGAFDYWGQGTLVTVSS
VL: DIVLTQPPSVSGAPGQRVTISCSGSSSNIGSNYVSWYQQLPGTAPKLLIYDNNQRPSGVPDRFSGSKSGTSASLAITGLQSEDEADYYCQSYDFSVYVFGGGTKLTVLG
notes: Fab: VH-CH1 with FLAG tag and STREP tag II, VL-CL; VH residue 1 is Q in Fab; also called 7BA
maximum capacity to kill MHH-Call 4 cells [3]: 78% | EC50 of cell killing, cross-linked Fab, bivalent agent [4]: 16 nM
